This data set can be described thus: protein stability index of a GFP-peptide fusion (yeast GPS) (PSI 1-4); higher = more stable; sorted into four equal gates, so the index is relative within each strain. An outline of the steps: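 Plasmids in a pooled yeast library fused tiled 17-residue yeast protein peptides downstream of GFP and also expressed Cherry. Mid-log cultures grown without leucine were sorted into four equal gates by GFP/Cherry fluorescence ratio. Each gate's plasmids were PCR-amplified and Illumina-sequenced, and reads were matched to strains by barcodes. The protein stability index is derived by multiplying each gate's read frequency by its gate number and summing the results.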

± gives the uncertainty stated by the source.

Turning to TSKSLVKRYRLAPTQLS [SIN4], the protein stability index runs as follows: (doa10∆) 2.63 ± 0.06; (pdr5∆) 2.26 ± 0.051; (san1∆) 2.11 ± 0.077; (ubr1∆) 2.66 ± 0.037.

Turning to ELTSFSSQPLEPLSDTE [DSN1], the protein stability index was 3.34 ± 0.11 (doa10∆), 3.12 ± 0.096 (pdr5∆), 3.29 ± 0.065 (san1∆) and 3.21 ± 0.076 (ubr1∆).

For the sequence SLGIRPCLRKYEEFRDV [RRP43], the protein stability index (doa10∆) stood at 3.27 ± 0.19, the protein stability index (san1∆) came to 3.21 ± 0.18 and the protein stability index (ubr1∆) turned out to be 2.96 ± 0.076.

EEQEKINSAPDFTQEDE [ISW2]: the protein stability index is, setting by setting: (doa10∆) 3.14 ± 0.11; (pdr5∆) 3.56 ± 0.088; (san1∆) 3.39 ± 0.081; (ubr1∆) 3.55 ± 0.067.

In the case of PLKTELEANGRSLEKVN [SSN2], the protein stability index runs as follows: (doa10∆) 3.19 ± 0.12; (pdr5∆) 3.34 ± 0.08; (san1∆) 3.22 ± 0.1; (ubr1∆) 3.55 ± 0.08.

For the sequence TKLYFDVNEKIRFRIER [RPC25], the protein stability index runs as follows: (doa10∆) 2.97 ± 0.11; (pdr5∆) 2.92 ± 0.097; (san1∆) 2.81 ± 0.084; (ubr1∆) 2.92 ± 0.17.

On to DANLLEEGETSRPLKKV [SWI3], for which the protein stability index reads like this: (doa10∆) 3.23 ± 0.12; (pdr5∆) 3.45 ± 0.16; (san1∆) 2.95 ± 0.082; (ubr1∆) 2.99 ± 0.15.

With DSLISGVKQKITIQLTR [BRR2], the protein stability index (doa10∆) is 1.44 ± 0.12, the protein stability index (pdr5∆) amounted to 1.74 ± 0.064, the protein stability index (san1∆) turned out to be 2.66 ± 0.083 and the protein stability index (ubr1∆) stood at 1.63 ± 0.073.

On to NIKIDAKPALFERFINA [MCD1], for which the protein stability index is 1.76 ± 0.053 (doa10∆), 2.8 ± 0.095 (pdr5∆), 2.3 ± 0.1 (san1∆) and 2.03 ± 0.066 (ubr1∆).

Take PVDHPHGGGNHQHIGKA [RPL2A]: the protein stability index was 3.11 ± 0.11 (doa10∆), 3.31 ± 0.085 (pdr5∆), 3.09 ± 0.051 (san1∆) and 3.22 ± 0.071 (ubr1∆).

As to SNELIEHFSHFGHIMED [YDL088C/ASM4], the protein stability index was determined as 3.33 ± 0.12 (doa10∆), 3.09 ± 0.065 (pdr5∆), 2.94 ± 0.053 (san1∆) and 2.99 ± 0.045 (ubr1∆).

With ARKSAPSTGGVKKPHRY [HHT1], the protein stability index amounted to 1.66 ± 0.065 (doa10∆), 1.87 ± 0.052 (pdr5∆), 2.03 ± 0.075 (san1∆) and 2.03 ± 0.063 (ubr1∆).

In the case of GKNVINRERFISKLFLR [SMD2], the protein stability index came out at 2.85 ± 0.093 (doa10∆), 1.69 ± 0.067 (pdr5∆), 1.73 ± 0.14 (san1∆) and 2.68 ± 0.12 (ubr1∆).

On to VSDDESNGEVLEVGKNN [RPN14], for which the protein stability index is 3.19 ± 0.1 (doa10∆), 2.99 ± 0.16 (pdr5∆), 3.07 ± 0.16 (san1∆) and 3.24 ± 0.056 (ubr1∆).

CLKRGWGHPTRMLLNLC [BRR2]: the protein stability index is, setting by setting: (pdr5∆) 3.14 ± 0.14; (san1∆) 3.23 ± 0.079.

Turning to FNAGSNPPSYQSSEDVI [RPB7], the protein stability index runs as follows: (doa10∆) 2.83 ± 0.24; (pdr5∆) 2.67 ± 0.21; (san1∆) 2.72 ± 0.27; (ubr1∆) 2.65 ± 0.14.

Take SMILGVAASIIPFPDHN [RPB2]: the protein stability index reads like this: (doa10∆) 2.21 ± 0.12; (pdr5∆) 2.41 ± 0.12; (san1∆) 2.27 ± 0.21; (ubr1∆) 2.8 ± 0.094.

As to YYSLNIDYHKTAKETKM [RPN11], the protein stability index by setting is: (doa10∆) 2.75 ± 0.067; (pdr5∆) 2.77 ± 0.072; (san1∆) 2.87 ± 0.053; (ubr1∆) 2.74 ± 0.06.

IELTSYESIATYASVTG [RPN7]: the protein stability index by setting is: (doa10∆) 1.1 ± 0.077; (pdr5∆) 1.31 ± 0.068; (san1∆) 1.11 ± 0.22; (ubr1∆) 1.15 ± 0.12.

As for CDDESGDNEYITLRTSG [MCD1], the protein stability index is, setting by setting: (doa10∆) 3.29 ± 0.16; (pdr5∆) 3.29 ± 0.099; (san1∆) 3.04 ± 0.072; (ubr1∆) 3.47 ± 0.061.

In the case of GCLHKGKLISNLSSTPM [YML031W/NDC1], the protein stability index (pdr5∆) came to 1.81 ± 0.16 and the protein stability index (ubr1∆) is 2.05 ± 0.19.

As for LLGTMAGGAADCQFWET [PRE2], the protein stability index amounted to 1.61 ± 0.069 (doa10∆), 2.6 ± 0.078 (pdr5∆), 2.22 ± 0.084 (san1∆) and 2.65 ± 0.078 (ubr1∆).

YGRDDMENIKKSIDSKT [ISW2]: the protein stability index reads like this: (doa10∆) 2.87 ± 0.11; (pdr5∆) 2.94 ± 0.1; (san1∆) 3.21 ± 0.062; (ubr1∆) 3.03 ± 0.082.

Turning to RLAPLIKEENDMENMAD [ARP7], the protein stability index runs as follows: (doa10∆) 3.75 ± 0.23; (pdr5∆) 3.65 ± 0.15; (san1∆) 2.88 ± 0.14.

Consider QSVEEKVLEMKNLKDTA [YIL149C/MLP2], for which the protein stability index (doa10∆) is 2.81 ± 0.25, the protein stability index (pdr5∆) stood at 2.58 ± 0.2 and the protein stability index (ubr1∆) turned out to be 2.78 ± 0.089.

As to QLSNWQKIRNSEGISEA [ITC1], the protein stability index (doa10∆) was found to be 2.94 ± 0.06, the protein stability index (pdr5∆) was 2.96 ± 0.083, the protein stability index (san1∆) was found to be 2.97 ± 0.065 and the protein stability index (ubr1∆) turned out to be 2.8 ± 0.073.
